# Experimental data published in PMC3958441, “Isl1 and Pou4f2 Form a Complex to Regulate Target Genes in Developing Retinal Ganglion Cells” (PLoS ONE, 2014).
# T1: Pou4f2D2 (mouse, UniProt Q63934 1-330)
# T1 sequence: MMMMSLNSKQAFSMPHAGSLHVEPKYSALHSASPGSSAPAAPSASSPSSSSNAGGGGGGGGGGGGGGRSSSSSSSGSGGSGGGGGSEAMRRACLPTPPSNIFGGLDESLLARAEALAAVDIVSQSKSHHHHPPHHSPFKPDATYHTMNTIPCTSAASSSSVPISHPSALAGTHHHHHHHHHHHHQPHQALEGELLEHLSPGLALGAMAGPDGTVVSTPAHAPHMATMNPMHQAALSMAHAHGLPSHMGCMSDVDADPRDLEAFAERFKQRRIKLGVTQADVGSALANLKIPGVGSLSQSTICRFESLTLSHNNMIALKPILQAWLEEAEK
# T2: Isl1D3 (mouse, UniProt P61372 170-349)
# T2 sequence: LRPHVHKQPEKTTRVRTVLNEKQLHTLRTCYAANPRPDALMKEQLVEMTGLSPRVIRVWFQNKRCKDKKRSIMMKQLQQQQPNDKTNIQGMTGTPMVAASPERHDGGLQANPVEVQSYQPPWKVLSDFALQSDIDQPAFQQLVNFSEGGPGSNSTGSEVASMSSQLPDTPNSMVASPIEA
# T3: Isl1D1 (mouse, UniProt P61372 1-181)
# T3 sequence: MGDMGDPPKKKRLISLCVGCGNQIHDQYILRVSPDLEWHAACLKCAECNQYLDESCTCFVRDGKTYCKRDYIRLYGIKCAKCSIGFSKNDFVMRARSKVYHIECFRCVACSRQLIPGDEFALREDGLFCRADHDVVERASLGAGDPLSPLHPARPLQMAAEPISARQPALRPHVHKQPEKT
# T4: Pou4f2 (Brn3b) (mouse, UniProt Q63934 1-411)
# T4 sequence: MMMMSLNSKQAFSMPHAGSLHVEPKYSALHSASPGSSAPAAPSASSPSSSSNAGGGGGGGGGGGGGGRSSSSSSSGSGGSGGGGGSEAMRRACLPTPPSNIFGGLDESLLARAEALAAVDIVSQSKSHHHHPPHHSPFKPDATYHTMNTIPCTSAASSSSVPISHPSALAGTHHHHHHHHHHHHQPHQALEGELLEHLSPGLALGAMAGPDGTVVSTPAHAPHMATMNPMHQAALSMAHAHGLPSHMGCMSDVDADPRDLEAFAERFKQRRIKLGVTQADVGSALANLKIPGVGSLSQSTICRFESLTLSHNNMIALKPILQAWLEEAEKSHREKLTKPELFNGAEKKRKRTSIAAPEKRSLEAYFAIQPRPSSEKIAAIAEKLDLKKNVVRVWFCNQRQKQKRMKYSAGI
# T5: Isl1D4 (mouse, UniProt P61372 146-349)
# T5 sequence: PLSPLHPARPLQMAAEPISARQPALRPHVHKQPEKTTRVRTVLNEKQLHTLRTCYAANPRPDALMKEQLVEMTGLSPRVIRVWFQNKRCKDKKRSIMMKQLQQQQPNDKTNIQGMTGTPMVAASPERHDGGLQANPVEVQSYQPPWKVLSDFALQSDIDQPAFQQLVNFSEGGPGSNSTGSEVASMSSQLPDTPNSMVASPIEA
# T6: Isl1D5 (mouse, UniProt P61372 74-349)
# T6 sequence: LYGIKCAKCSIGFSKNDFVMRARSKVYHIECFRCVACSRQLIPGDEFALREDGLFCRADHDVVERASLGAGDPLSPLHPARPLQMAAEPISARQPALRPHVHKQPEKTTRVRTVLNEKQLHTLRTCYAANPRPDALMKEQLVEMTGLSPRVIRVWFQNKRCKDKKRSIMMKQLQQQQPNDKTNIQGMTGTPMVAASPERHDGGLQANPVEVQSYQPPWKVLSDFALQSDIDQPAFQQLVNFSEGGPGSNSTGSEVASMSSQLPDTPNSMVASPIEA
# B1: CBRN3(W) (dsDNA)
# DNA 1: GATCTCTCCTGCATAATTAATTACCCCCGGAT
# DNA 2: GATCCGGGGGTAATTAATTATGCAGGAGAGAT
# B2: SBRN3(W) (dsDNA)
# DNA 1: GCACACGACCCAATGAATTAATAACCGGGCTG
# DNA 2: GCAGCCCGGTTATTAATTCATTGGGTCGTGTG
# Key:
# Assay in all cases: EMSA; EMSA: 20 mM Tris-HCl pH 7.5, 50 mM NaCl, 10 mM DTT, 1 mM EDTA, 5% glycerol, 200 ng dI/dC, 200 ng each protein in 20 ul, 4 C, 30 min; 8% PAGE, 1x TBE, 4 C
# [1] = target: T1, Pou4f2D2; conditions: protein: recombinant; tags: His (C-terminal); (radiolabel, Klenow fill-in); 5' overhang 1 nt at both ends before fill-in
# [2] = target: T2, Isl1D3; conditions: protein: recombinant; tags: His (C-terminal); (radiolabel, Klenow fill-in); 5' overhang 1 nt at both ends before fill-in
# [3] = target: T3, Isl1D1; conditions: protein: recombinant; tags: His (C-terminal); (radiolabel, Klenow fill-in); 5' overhang 1 nt at both ends before fill-in
# [4] = target: T4, Pou4f2 (Brn3b); conditions: protein: recombinant; tags: His (C-terminal, pET-28a); (radiolabel, Klenow fill-in); 5' overhang 1 nt at both ends before fill-in
# [5] = target: T5, Isl1D4; conditions: protein: recombinant; tags: His (C-terminal); (radiolabel, Klenow fill-in); 5' overhang 1 nt at both ends before fill-in
# [6] = target: T6, Isl1D5; conditions: protein: recombinant; tags: His (C-terminal); (radiolabel, Klenow fill-in); 5' overhang 1 nt at both ends before fill-in
binder,measurement,setting,value
B1,binding result,[1],no binding
same,binding result,[2],binds
same,binding result,[3],no binding
same,binding result,[4],binds
same,binding result,[5],binds
same,binding result,[6],binds
B2,binding result,[1],no binding
same,binding result,[2],binds
same,binding result,[3],no binding
same,binding result,[4],binds
same,binding result,[5],binds
same,binding result,[6],binds
